Test results: publication PMC5807052, “Robo1 Forms a Compact Dimer-of-Dimers Assembly” (Structure(London, England:1993), 2018)
Several values for one entry are separate records, joined by “and”; a condition that tells them apart may be missing. Identical values can stand only once.

B1: Robo1 ECDa (human Robo1 ectodomain, residues 61-853) (domain or fragment, UniProt Q9Y6N7-1 61-853, looked up)
chain: LRQEDFPPRIVEHPSDLIVSKGEPATLNCKAEGRPTPTIEWYKGGERVETDKDDPRSHRMLLPSGSLFFLRIVHGRKSRPDEGVYVCVARNYLGEAVSHNASLEVAILRDDFRQNPSDVMVAVGEPAVMECQPPRGHPEPTISWKKDGSPLDDKDERITIRGGKLMITYTRKSDAGKYVCVGTNMVGERESEVAELTVLERPSFVKRPSNLAVTVDDSAEFKCEARGDPVPTVRWRKDDGELPKSRYEIRDDHTLKIRKVTAGDMGSYTCVAENMVGKAEASATLTVQEPPHFVVKPRDQVVALGRTVTFQCEATGNPQPAIFWRREGSQNLLFSYQPPQSSSRFSVSQTGDLTITNVQRSDVGYYICQTLNVAGSIITKAYLEVTDVIADRPPPVIRQGPVNQTVAVDGTFVLSCVATGSPVPTILWRKDGVLVSTQDSRIKQLENGVLQIRYAKLGDTGRYTCIASTPSGEATWSAYIEVQEFGVPVQPPRPTDPNLIPSAPSKPEVTDVSRNTVTLSWQPNLNSGATPTSYIIEAFSHASGSSWQTVAENVKTETSAIKGLKPNAIYLFLVRAANAYGISDPSQISDPVKTQDVLPTSQGVDHKQVQRELGNAVLHLHNPTVLSSSSIEVHWTVDQQSQYIQGYKILYRPSGANHGESDWLVFEVRTPAKNSVVIPDLRKGVNYEIKARPFFNEFQGADSEIKFAKTLEEAPSAPPQGVTVSKNDGNGTAILVSWQPPPEDTQNGMVQEYKVWCLGNETRYHINKTVDGSTFSVVIPFLVPGIRYSVEVA
notes: Robo1, human, ectodomain construct ECDa, residues 61-853 of NP_002932; lacks the last beta-strand of Fn3; Cloned into a modified pTT3 vector that encodes a signal peptide and a C-terminal hexa-histidine tag; also called pTT3_Robo1_ECDa; source: HEK-293T, transient expression, secreted, purified (Ni-sepharose, SEC Superdex S200)
B2: Robo1 ECDb (human Robo1 whole ectodomain, residues 61-864) (domain or fragment, UniProt Q9Y6N7-1 61-864, looked up)
chain: LRQEDFPPRIVEHPSDLIVSKGEPATLNCKAEGRPTPTIEWYKGGERVETDKDDPRSHRMLLPSGSLFFLRIVHGRKSRPDEGVYVCVARNYLGEAVSHNASLEVAILRDDFRQNPSDVMVAVGEPAVMECQPPRGHPEPTISWKKDGSPLDDKDERITIRGGKLMITYTRKSDAGKYVCVGTNMVGERESEVAELTVLERPSFVKRPSNLAVTVDDSAEFKCEARGDPVPTVRWRKDDGELPKSRYEIRDDHTLKIRKVTAGDMGSYTCVAENMVGKAEASATLTVQEPPHFVVKPRDQVVALGRTVTFQCEATGNPQPAIFWRREGSQNLLFSYQPPQSSSRFSVSQTGDLTITNVQRSDVGYYICQTLNVAGSIITKAYLEVTDVIADRPPPVIRQGPVNQTVAVDGTFVLSCVATGSPVPTILWRKDGVLVSTQDSRIKQLENGVLQIRYAKLGDTGRYTCIASTPSGEATWSAYIEVQEFGVPVQPPRPTDPNLIPSAPSKPEVTDVSRNTVTLSWQPNLNSGATPTSYIIEAFSHASGSSWQTVAENVKTETSAIKGLKPNAIYLFLVRAANAYGISDPSQISDPVKTQDVLPTSQGVDHKQVQRELGNAVLHLHNPTVLSSSSIEVHWTVDQQSQYIQGYKILYRPSGANHGESDWLVFEVRTPAKNSVVIPDLRKGVNYEIKARPFFNEFQGADSEIKFAKTLEEAPSAPPQGVTVSKNDGNGTAILVSWQPPPEDTQNGMVQEYKVWCLGNETRYHINKTVDGSTFSVVIPFLVPGIRYSVEVAASTGAGSGVKS
notes: Robo1, human, whole ectodomain construct ECDb, residues 61-864 of NP_002932; Cloned into a modified pTT3 vector that encodes a signal peptide and a C-terminal hexa-histidine tag; also called pTT3_Robo1_ECDb; source: HEK-293T, transient expression, secreted, purified (Ni-sepharose, SEC Superdex S200)

Experiments:
[1] = biological target: the molecule itself; experiment: SEC; Superdex S200, 200 mM NaCl, 20 mM Tris pH 7.5; self-association of Robo1 ECD
[2] = biological target: the molecule itself; experiment: SEC-MALS; Superdex S200 HR 10/30, 200 mM NaCl, 20 mM Tris pH 7.5; 55 ul of Robo1 ECDa at 2.5 mg/ml from peak 1 of the SEC
[3] = biological target: the molecule itself; experiment: negative-stain EM reconstruction; GraFix-stabilised sample (fraction 12), ammonium molybdate stain, 100 kV; 3D map with D2 symmetry, 16 Å (FSC 0.143), filtered to 20 Å

Protein	stoichiometry N [1]	stoichiometry N [2]	binding result [3]
B1	4 and 2	1	–
B2	–	–	binds
